Measurements published in the DeepSol protein solubility set.

Assay: soluble on expression in E. coli; label from the status in PepcDB or PDB records

Sequence | soluble on expression in E. coli
MAKYTREDIEKLVKEENVKYIRLQFTDILGTIKNVEIPVSQLGKALDNKVMFDGSSIEGFVRIEESDMYLYPDLNTFVIFPWTAEKGKVARFICDIYNPDGTPFEGDPRNNLKRILKEMEDLGFSDFNLGPEPEFFLFKLDEKGEPTLELNDKGGYFDLAPTDLGENCRRDIVLELEEMGFEIEASHHEVAPGQHEIDFKYAGAVRSCDDIQTFKLVVKTIARKHGLHATFMPKPLFGVNGSGMHCNLSLFKNGVNAFFDENADLQLSETAKHFIAGIVKHATSFTAVTNPTVNSYKRLVPGYEAPCYVAWSAQNRSPLIRIPASRGISTRVEVRSVDPAANPYLALSVLLAAGLDGIKNKLEAPAPIDRNIYVMSKEERMENGIVDLPATLAEALEEFKSNEVMVKALGEHLFEHFIEAKEIEWDMFRTQVHPWEREQYMSQY | not soluble
MTLDVPVNQGHVPPGSVACCLVGVTAVADGIAGHSLSNFGALPPEINSGRMYSGPGSGPLMAAAAAWDGLAAELSSAATGYGAAISELTNMRWWSGPASDSMVAAVLPFVGWLSTTATLAEQAAMQARAAAAAFEAAFAMTVPPPAIAANRTLLMTLVDTNWFGQNTPAIATTESQYAEMWAQDAAAMYGYASAAAPATVLTPFAPPPQTTNATGLVGHATAVAALRGQHSWAAAIPWSDIQKYWMMFLGALATAEGFIYDSGGLTLNALQFVGGMLWSTALAEAGAAEAAAGAGGAAGWSAWSQLGAGPVAASATLAAKIGPMSVPPGWSAPPATPQAQTVARSIPGIRSAAEAAETSVLLRGAPTPGRSRAAHMGRRYGRRLTVMADRPNVG | not soluble
KIIEEFIDSLFSGVVETSETKQLKADLLANAEDRYEDLLSQGKSENEAIGTIISEFGTIDELMEELNLENKQVDEPNDS | not soluble
MAWPKVQPEVNIGVVGHVDHGKTTLVQAITGIWTSKHSEELKRGMTIKLGYAETNIGVCESCKKPEAYVTEPSCKSCGSDDEPKFLRRISFIDAPGHEVLMATMLSGAALMDGAILVVAANEPFPQPQTREHFVALGIIGVKNLIIVQNKVDVVSKEEALSQYRQIKQFTKGTWAENVPIIPVSALHKINIDSLIEGIEEYIKTPYRDLSQKPVMLVIRSFDVNKPGTQFNELKGGVIGGSIIQGLFKVDQEIKVLPGLRVEKQGKVSYEPIFTKISSIRFGDEEFKEAKPGGLVAIGTYLDPSLTKADNLLGSIITLADAEVPVLWNIRIKYNLLERVVGAKEMLKVDPIRAKETLMLSVGSSTTLGIVTSVKKDEIEVELRRPVAVWSNNIRTVISRQIAGRWRMIGWGLVEI | soluble
MSVKSDSRHLYLRVIDHIKEKIKDGAYKERQKLPSEFDLAKELGVSRATLREALRILEEENVVIRRHGVGTFVNAKPLFSSGIEQLSSITDMISSVGKTPGTIFLSSSTTSLTEEEKEKFNSEDGFNAVMIERVRTADGEPVVYCIDKLAKEILPDLSGYNEESLLTVIHNNTHKRITYAVAHIEPIGYHPKISPILECEPETALLVLKQMHYDQNDEPILYSINYFRADKFSFHVLRKRM | not soluble
MQFLSPLILFTSCTLLATSLLAAEQAPPPSECLIKSQQISSQIQDAKTEGNKAEQSGLEKALAEVNANCTETSLLKQREQKVLDAKREVSRRQTDLNKAMDKGDPEKINKRKDKLAESRKELQEAQTDLEKVQSDDLEHHHHHH | not soluble
MNMTKNAFQFGIEPVRITDTDNIQVNEGLPTNADPQVYALQLAKTVKAMLNGVLKDAQDNIPFPVEVLPTRNSLPTPIIAHTLADRSVLVPVRGGKRPEVVTAPSGTEITVEPIEQAILVSHQTKLWDQKSTTGFTQGTLQQDALNICDNVIRTINSKMVDVLESSKLLKTVELPALTGSLTAKADAIMDALYENTESSFGSEVSDYGIIAHESHLKALSRLAAKQGFGGEDAIVDMLGTDVAYYNGEDRGVFMMAKRFTALSFGCFRHDGESITVVLSRDGDSQSHDLEILGKVFVVAEAATTIKMGTGSATAVLPVVKRLSFTKEAN | not soluble
MDTLQNMRAFSSVAQAGSFTAAAAVLDTTTANVSRAVSNLEAHLQTRLLNRTTRRIALTEAGKRYLLRCEQILASVEEAEAEASDAHARPAGQLKVHSMPGVGQHYVIDAIARYRRNHPDVAFDLTMTHRVPDLLEEGFDVSIVLASELADSGFVSQRLGITYSIVCASPEYVKTFGMAHKPADLLNHACLRLVSPVFPLDKWLFDGPEGQEMVTINSSPLLVNSADAMKTAISSGMGIGILPIYSAIEGLRNGTLVRVLSDYRSQELNLYAIYPSRQYLDAKIRTWVEYLRGSLPEILAADEADLHVQALKASC | not soluble
LEQYVVVSNYKKQENSELSLQAGEVVDVIEKNESGWWFVSTSEEQGWVPATYLEAQN | soluble
MTGKKRSASSSRWLQEHFSDKYVQQAQKKGLRSRAWFKLDEIQQSDKLFKPGMTVVDLGAAPGGWSQYVVTQIGGKGRIIACDLLPMDPIVGVDFLQGDFRDELVMKALLERVGDSKVQVVMSDMAPNMSGTPAVDIPRAMYLVELALEMCRDVLAPGGSFVVKVFQGEGFDEYLREIRSLFTKVKVRKPDSSRARSREVYIVATGRKP | soluble
MTNLNYQQTHFVMSAPDIRHLPSDTGIEVAFAGRSNAGKSSALNTLTNQKSLARTSKTPGRTQLINLFEVADGKRLVDLPGYGYAEVPEEMKRKWQRALGEYLEKRQSLQGLVVLMDIRHPLKDLDQQMIEWAVDSNIAVLVLLTKADKLASGARKAQLNMVREAVLAFNGDVQVETFSSLKKQGVDKLRQKLDTWFSEMQPVEETQDGE | soluble
MGSDKIHHHHHHMDLKEKILDYKDEVVKEIQNAVRVKSVKEAPLPGMPFGEGPAKALDHFMDLAKKLGFKAEKFDNYAMHIDMGEGKETLGILAHVDVVPEGDNWTYPPYSGTIADGKIFGRGTLDDKGPAIISLFAMKAIADSGVKLNKKIRMILGADEESGSACLKYYFGELKMPYPDIAFTPDSSFPVTYAEKGSVRVKIKKKFNTLQDLVIKGGNAFNSVPNEANGVIPVDMLGEVRNKNKVEFEREGNTYKVFSAGIPAHGAYPSKGYNAVSALFEVLKDIEVKNEELKGLVTFFDKFVKMETDGKSFGVKCTDGETGELTLNLGKINLENNELEIWIDMRIPVKVKNEQIIETIKENTEDYGYEFLLHSNTQPLYVAKDSFLVSTLMNIYKELTGDNDAEPVAIGGGTYAKYAKNAVAFGALLPDQEDRMHQRDEYLEISKIDKLLQIYVEAIYRLAK | not soluble
MSENHVPAWKRIALKRQTISSGDESKEKGQSNLIDDDPLNITTHLSTGNLTKKEKKRIINGESKSSTKKGKRVSKPGTKKKEKLSKDEKNSKKNKILKDQLRYLIEFFRTKSESKFPTGILELESVKENYGDSLIKDEPSESGVVEVWKFSKQKQNWLIKHFFNLDEIPSVYNDLLLLYFRDLQGKSKEELISKCKGKLKQWNDYVEDQETKIKALIAEDKASEPINGEEKEEGEKDGNAEQGKQKEVQDEQEEVQMPNKELVQRSLKLLEIWKNDDSEQIELKNFFVDV | soluble
MNNSIPERFIFQCALFKNLEREVFMTHGYVDSHIIDQALRLRLKDETSVILSDLYLQILQYIEMHKTTLTDIIINDRESVLSAAALEHHHHHH | not soluble
MGSDKIHHHHHHALICNSAVTTTASTLYSWHQVRNTLAIMFNKRHIERHQLPCVLKVFNRFTGQEIGQLGNASENGLMVISQLPVLVGPDYELQLRMPLPGGGHQFVNLTASCLWCREDQTPGHYDSGFMLLQSPREYDDFVRSLRDYFSFRPANAPV | not soluble
MFIDTSELCDLYAEQVDVVEPIFSSFGGVSNFYGKVTTVKCFESNGLIAEVLEENGEGRVLVIDGGGAVRRGLIDAELAQLAVDNGWEGIIVYGAVRQIQQLENLDIGIHALAPIPVSADESSAGESDIPVNFGGVTFFPEDYIYADLTGIILSQEPLDLEDLEHHHHHH | not soluble
RTCRIHEISCGAHSTQCIPVSWRCDGENDCDSGEDEENCGN | soluble
MGSDKIHHHHHHMPTSALDGKDTAAIQAATAEVAVYDRSNWGLIRVSDDDRLRFLHNQSTNDFQSLKPGQGCETVMVTSTARTIDLVSSYVLNDAVILLVSSSRREFLLQWLDRYIFFADKVQLTDITDETATLSIIGPGSDAVVEKLGAGEIIGQPHGNHITIDGGVVAAVGSGLASPGYTLILPVSQKQQVWQQILDSGAVELSDRAWDTLRILQGRPAPDAELTDDYNPLEVGLWQTISFSKGCYIGQETIARLNTYKGVKQHLWGIRLNAPAEIGDSINIGDEKVGKLTSYTETPDGYFGLAYIRSKAGGVGLKVQVGNSEGEVVAIPFVSHEYP | not soluble
QLTPFQQEVSRGLKKSVCHKENMLIHAVTGAGKTEMIYETLASILNQGGAVALASPRIDVCIELYKRLSRDFSCPISLLYGESEAYERSPLVIATTHQLLKFYRAFDLLIIDEVDAFPFVDNKMLYYAVDHCLKSDGVKVFLTATS | not soluble
MGSDKIHHHHHHDWLDLNTTSSVETGQAIVTLDDAQIALNGIYRLASGHSYYGDNYWYYGDCRAADVQARITKGDGKRVSPYYEYNVLASDNLNIVLPWNTVYKVIRQTNNLIQKIESGSIQSSDTKELNRIKSEALVMRGLSLFNLTRLFGMPYTNDKGASLGVPIETSPSDPTHKPSRSTVAQCYEQVVSDMSNALSGLRQETSNGYINYWAAQALLSRVYLNMGEYQKAYDAATDVIKNNGGRYQLYSYEEYPNVWGQDFQSESLFELYITLSEPSGGTGGEGAPMVYANEATVDWNNLILSEDFLNLLNEDPKDVRHCLTKESVIENNTGLPAAAMHEKVYLAKFPGKTGDDPKTNNICIIRLSEVYLNAAEAGLKKGTDIEEAQGYLNDIISRRTTDTSQQVSTETFTLDRILKERRKELVGEGEVFYDYLRNGLAIERKGSWHLETLKASNAQKIEATDLRIALPIPQSEIDANPNIQQNPR | not soluble
MAHHHHHHMKCFLIVDAQNDFLPTGSFNSRDDYMDTLNKINAIRLRLHNCTEKDLLKLSNCKHLMKYQPDKLLKENIVQYHQCNNDIDDDEREGDILIFPTDHRVMTCLSNRLSASNICSDLHKQTAQGTANGVERIPNNNNNGFSHTKEGTSHNGTHMHNHHPDESHQKNVETNDVETNNLARRNRSKESTNSENAKFALNILSVDYHPPCHISFAETHRILFEQIKRNKGTKNSSAEINIDRVTELSSHAQVNSSVASEEEAEGAHAEEAECDDEGTPSLDHTNEADGGEVQEPPQADLLQSAFLKKNKIFNLTDVMKNIQKIKSTRYIYKNVNSVSDIKEYSKLNFLNEWIDVWPIHCVRNTPGCKVHPNLIRHINDIVIKKADTENHDSHTIFENSEINQKILNLLKKQNIKSVYICGFIFEYCVKETALSFFNLGFDTYIVEDATAYLFGREEDKDNLKKKGIKFVNSSTMFA | not soluble
MAHHHHHHMGTLEAQTQGPGSMPIKSSLLIVVACALLDQDNRVLLTQRPEGKSLAGLWEFPGGKVEQGETPEASLIRELEEELGVHVQADNLFPLTFASHGYETFHLLMPLYFCSHYKGVAQGREGQNLKWIFINDLDKYPMPEADKPLVQVLKNFFI | soluble
MSLTQPFQLPHFYMPYPARLNPHLDEARAHSTRWARGMGMLEGSGIWEQSDLDAHDYGLLCAYTHPDCDGPALSLITDWYVWVFFFDDHFLETFKRTQDREGGKAYLDRLPLFMPLDLSAPVPEPENPVEAGLADLWARTVPAMSADWRKRFAVSTEHLLNESLWELSNINEGRIANPVEYIEMRRKVGGAPWSAGLVEYATAEVPAAVAGSRPLRVLMETFSDGVHLRNDLFSYQREVEEEGELSNGVLVLETFFGCTTQEAAETVNDILTSRLHQFEHTALTEVPALALEKGLTPPEVAAVAAYARGLQDWQSGGHEWHLRSSRYMNEEGHHHHHH | soluble
